Assay results published in US20240117018A1.

Tests used:
Assay in all cases: cell-based or functional assay
[1] = target: HIV-1 Env of pseudovirus Q23.17 (HIV-1)
[2] = target: HIV-1 Env of pseudovirus TRJO4551.58 (HIV-1)
[3] = target: HIV-1 Env of pseudovirus HIV-001428-2.42 (HIV-1)
[4] = target: HIV-1 Env of pseudovirus Q769.d22 (HIV-1)
[5] = target: HIV-1 Env of pseudovirus CAAN5342.A2 (HIV-1)
[6] = target: HIV-1 Env of pseudovirus 246F C1G (HIV-1)
[7] = target: HIV-1 Env of pseudovirus TRO.11 (HIV-1)
[8] = target: HIV-1 Env of pseudovirus MS208.A1 (HIV-1)
[9] = target: HIV-1 Env of pseudovirus ZM109F.PB4 (HIV-1)
[10] = target: HIV-1 Env of pseudovirus 1394C9G1(Rev-) (HIV-1)
[11] = target: HIV-1 Env of pseudovirus PVO.4 (HIV-1)
[12] = target: HIV-1 Env of pseudovirus ZM135M.PL10a (HIV-1)
[13] = target: HIV-1 Env of pseudovirus HIV-16845-2.22 (HIV-1)
[14] = target: HIV-1 Env of pseudovirus Ce2010_F5 (HIV-1)
[15] = target: HIV-1 Env of pseudovirus 6244_13_B5_4576 (HIV-1)
[16] = target: HIV-1 Env of pseudovirus Ce0393_C3 (HIV-1)
[17] = target: HIV-1 Env of pseudovirus 6535.3 (HIV-1)
[18] = target: HIV-1 Env of pseudovirus Ce703010054_2A2 (HIV-1)
[19] = target: HIV-1 Env of pseudovirus CNE30 (HIV-1)
[20] = target: HIV-1 Env of pseudovirus CNE52 (HIV-1)
[21] = target: HIV-1 Env of pseudovirus WITO4160.33 (HIV-1)
[22] = target: HIV-1 Env of pseudovirus 62357_14_D3_4589 (HIV-1)
[23] = target: HIV-1 Env of pseudovirus Ce0682_E4 (HIV-1)
[24] = target: HIV-1 Env of pseudovirus 1054_07_TC4_1499 (HIV-1)
[25] = target: HIV-1 Env of pseudovirus SC05_8C11_2344 (HIV-1)
[26] = target: HIV-1 Env of pseudovirus Ce704809221_1B3 (HIV-1)
[27] = target: HIV-1 Env of pseudovirus T250-4 (HIV-1)
[28] = target: HIV-1 Env of pseudovirus CNE8 (HIV-1)
[29] = target: HIV-1 Env of pseudovirus CAP210.2.00.E8 (HIV-1)
[30] = target: HIV-1 Env of pseudovirus 6240_08_TA5_4622 (HIV-1)
[31] = target: HIV-1 Env of pseudovirus AC10.0.29 (HIV-1)
[32] = target: HIV-1 Env of pseudovirus Ce1172_H1 (HIV-1)
[33] = target: HIV-1 Env of pseudovirus CAP45.2.00.G3 (HIV-1)
[34] = target: HIV-1 Env of pseudovirus ZM247v1(Rev-) (HIV-1)
[35] = target: HIV-1 Env of pseudovirus HIV-16055-2.3 (HIV-1)
[36] = target: HIV-1 Env of pseudovirus CNE5 (HIV-1)
[37] = target: HIV-1 Env of pseudovirus THRO4156.18 (HIV-1)
[38] = target: HIV-1 Env of pseudovirus ZM233M.PB6 (HIV-1)

PGT145 (antibody) showed a neutralization IC50 [1] of 1.32 µg/mL, a neutralization IC80 [1] of over 50 µg/mL and a neutralization IC50 [2] of over 50 µg/mL. It also gave a neutralization IC80 [2] of over 50 µg/mL, a neutralization IC50 [3] of 0.001 µg/mL and a neutralization IC80 [3] of 0.083 µg/mL. It also gave a neutralization IC50 [4] of 0.26 µg/mL, a neutralization IC80 [4] of 25.5 µg/mL and a neutralization IC50 [5] of 6.67 µg/mL. It also gave a neutralization IC80 [5] of 25.5 µg/mL, a neutralization IC50 [6] of over 50 µg/mL and a neutralization IC80 [6] of over 50 µg/mL. It also gave a neutralization IC50 [7] of 0.04 µg/mL, a neutralization IC80 [7] of 0.118 µg/mL and a neutralization IC50 [8] of 0.334 µg/mL. The neutralization IC80 [8] was 18 µg/mL, the neutralization IC50 [9] was 0.042 µg/mL and the neutralization IC80 [9] was 0.234 µg/mL. For the same substance, the neutralization IC50 [10] was 0.001 µg/mL, the neutralization IC80 [10] was 0.005 µg/mL and the neutralization IC50 [11] was 0.192 µg/mL. For the same substance, the neutralization IC80 [11] was 0.87 µg/mL, the neutralization IC50 [12] was over 50 µg/mL and the neutralization IC80 [12] was over 50 µg/mL. It also gave a neutralization IC50 [13] of over 50 µg/mL, a neutralization IC80 [13] of over 50 µg/mL and a neutralization IC50 [14] of over 50 µg/mL. For the same substance, the neutralization IC80 [14] was over 50 µg/mL, the neutralization IC50 [15] was 7.27 µg/mL and the neutralization IC80 [15] was 44.5 µg/mL. The neutralization IC50 [16] was 0.112 µg/mL, the neutralization IC80 [16] was 1.23 µg/mL and the neutralization IC50 [17] was over 50 µg/mL. It also gave a neutralization IC80 [17] of over 50 µg/mL, a neutralization IC50 [18] of over 50 µg/mL and a neutralization IC80 [18] of over 50 µg/mL. It also gave a neutralization IC50 [19] of over 50 µg/mL, a neutralization IC80 [19] of over 50 µg/mL and a neutralization IC50 [20] of 0.02 µg/mL. The neutralization IC80 [20] was 0.091 µg/mL, the neutralization IC50 [21] was under 0.001 µg/mL and the neutralization IC80 [21] was 0.001 µg/mL. The neutralization IC50 [22] was over 50 µg/mL, the neutralization IC80 [22] was over 50 µg/mL and the neutralization IC50 [23] was 33.6 µg/mL. The neutralization IC80 [23] was over 50 µg/mL, the neutralization IC50 [24] was over 50 µg/mL and the neutralization IC80 [24] was over 50 µg/mL. The neutralization IC50 [25] was 0.093 µg/mL, the neutralization IC80 [25] was 0.248 µg/mL and the neutralization IC50 [26] was 0.102 µg/mL. The neutralization IC80 [26] was 0.71 µg/mL, the neutralization IC50 [27] was 0.002 µg/mL and the neutralization IC80 [27] was 0.039 µg/mL. For the same substance, the IC50 (Titer in TZM.bl cells) [28] was 0.272 µg/mL, the IC80 (Titer in TZM.bl cells) [28] was 2.24 µg/mL and the neutralization IC50 [29] was 37.8 µg/mL. The neutralization IC80 [29] was over 50 µg/mL, the neutralization IC50 [30] was over 50 µg/mL and the neutralization IC80 [30] was over 50 µg/mL. For the same substance, the neutralization IC50 [31] was 0.01 µg/mL, the neutralization IC80 [31] was 0.025 µg/mL and the neutralization IC50 [32] was 0.26 µg/mL. The neutralization IC80 [32] was 2.06 µg/mL, the neutralization IC50 [33] was 0.001 µg/mL and the neutralization IC80 [33] was 0.007 µg/mL. For the same substance, the neutralization IC50 [34] was 7.19 µg/mL, the neutralization IC80 [34] was over 50 µg/mL and the neutralization IC50 [35] was 0.003 µg/mL. For the same substance, the neutralization IC80 [35] was 0.051 µg/mL, the IC50 (Titer in TZM.bl cells) [36] was 0.001 µg/mL and the IC80 (Titer in TZM.bl cells) [36] was 0.013 µg/mL. For the same substance, the neutralization IC50 [37] was 0.01 µg/mL, the neutralization IC80 [37] was 0.029 µg/mL and the neutralization IC50 [38] was 0.025 µg/mL. For the same substance, the neutralization IC80 [38] was 0.68 µg/mL.

PGT151 (antibody) was tested, and the neutralization IC50 [1] was 0.007 µg/mL, the neutralization IC80 [1] was 0.045 µg/mL and the neutralization IC50 [2] was 0.496 µg/mL. It also gave a neutralization IC80 [2] of 4.22 µg/mL, a neutralization IC50 [3] of 0.027 µg/mL and a neutralization IC80 [3] of over 50 µg/mL. It also gave a neutralization IC50 [4] of over 50 µg/mL, a neutralization IC80 [4] of over 50 µg/mL and a neutralization IC50 [5] of 0.005 µg/mL. It also gave a neutralization IC80 [5] of 0.038 µg/mL, a neutralization IC50 [6] of over 50 µg/mL and a neutralization IC80 [6] of over 50 µg/mL. It also gave a neutralization IC50 [7] of over 50 µg/mL, a neutralization IC80 [7] of over 50 µg/mL and a neutralization IC50 [8] of under 0.001 µg/mL. For the same substance, the neutralization IC80 [8] was 0.003 µg/mL, the neutralization IC50 [9] was 0.609 µg/mL and the neutralization IC80 [9] was over 50 µg/mL. It also gave a neutralization IC50 [10] of 0.022 µg/mL, a neutralization IC80 [10] of 0.733 µg/mL and a neutralization IC50 [11] of 0.017 µg/mL. For the same substance, the neutralization IC80 [11] was over 50 µg/mL, the neutralization IC50 [12] was over 50 µg/mL and the neutralization IC80 [12] was over 50 µg/mL. The neutralization IC50 [13] was over 50 µg/mL, the neutralization IC80 [13] was over 50 µg/mL and the neutralization IC50 [14] was over 50 µg/mL. For the same substance, the neutralization IC80 [14] was over 50 µg/mL, the neutralization IC50 [15] was over 50 µg/mL and the neutralization IC80 [15] was over 50 µg/mL. It also gave a neutralization IC50 [16] of over 50 µg/mL, a neutralization IC80 [16] of over 50 µg/mL and a neutralization IC50 [17] of under 0.001 µg/mL. The neutralization IC80 [17] was 0.012 µg/mL, the neutralization IC50 [18] was 0.013 µg/mL and the neutralization IC80 [18] was 0.075 µg/mL. It also gave a neutralization IC50 [19] of over 50 µg/mL, a neutralization IC80 [19] of over 50 µg/mL and a neutralization IC50 [20] of 0.004 µg/mL. For the same substance, the neutralization IC80 [20] was 0.017 µg/mL, the neutralization IC50 [21] was 0.002 µg/mL and the neutralization IC80 [21] was 0.021 µg/mL. It also gave a neutralization IC50 [22] of 0.004 µg/mL, a neutralization IC80 [22] of 0.023 µg/mL and a neutralization IC50 [23] of over 50 µg/mL. For the same substance, the neutralization IC80 [23] was over 50 µg/mL, the neutralization IC50 [24] was 0.008 µg/mL and the neutralization IC80 [24] was 0.032 µg/mL. The neutralization IC50 [25] was 0.06 µg/mL, the neutralization IC80 [25] was over 50 µg/mL and the neutralization IC50 [26] was over 50 µg/mL. It also gave a neutralization IC80 [26] of over 50 µg/mL, a neutralization IC50 [27] of 0.005 µg/mL and a neutralization IC80 [27] of 0.014 µg/mL. The IC50 (Titer in TZM.bl cells) [28] was over 50 µg/mL, the IC80 (Titer in TZM.bl cells) [28] was over 50 µg/mL and the neutralization IC50 [29] was 0.01 µg/mL. The neutralization IC80 [29] was 0.208 µg/mL, the neutralization IC50 [30] was 0.046 µg/mL and the neutralization IC80 [30] was 0.42 µg/mL. For the same substance, the neutralization IC50 [31] was 0.007 µg/mL, the neutralization IC80 [31] was 0.023 µg/mL and the neutralization IC50 [32] was over 50 µg/mL. It also gave a neutralization IC80 [32] of over 50 µg/mL, a neutralization IC50 [33] of 0.007 µg/mL and a neutralization IC80 [33] of over 50 µg/mL. For the same substance, the neutralization IC50 [34] was 0.009 µg/mL, the neutralization IC80 [34] was over 50 µg/mL and the neutralization IC50 [35] was 0.143 µg/mL. The neutralization IC80 [35] was over 50 µg/mL, the IC50 (Titer in TZM.bl cells) [36] was over 50 µg/mL and the IC80 (Titer in TZM.bl cells) [36] was over 50 µg/mL. For the same substance, the neutralization IC50 [37] was over 50 µg/mL, the neutralization IC80 [37] was over 50 µg/mL and the neutralization IC50 [38] was 0.027 µg/mL. It also gave a neutralization IC80 [38] of 5.16 µg/mL.
